Here are results for 1 protein from patent US7076372 (Takeda / Millennium, dated 2006).

This data set concerns the molecule itself. The experiment in a line: X-ray crystal structure, two MvaS molecules in the asymmetric unit.

B1: MvaS from E. faecalis (HMG-CoA Synthase), full-length with non-cleavable carboxy-terminal six histidine tag, seleno-methionine labeled (enzyme)
chain: MTIGIDKISFFVPPYYIDMTALAEARNVDPGKFHIGIGQDQMAVNPISQDIVTFAANAAEAILTKEDKEAIDMVIVGTESSIDESKAAAVVLHRLMGIQPFARSFEIKEACYGATAGLQLAKNHVALHPDKKVLVVAADIAKYGLNSGGEPTQGAGAVAMLVASEPRILALKEDNVMLTQDIYDFWRPTGHPYPMVDGPLSNETYIQSFAQVWDEHKKRTGLDFADYDALAFHIPYTKMGKKALLAKISDQTEAEQERILARYEESIVYSRRVGNLYTGSLYLGLISLLENATTLTAGNQIGLFSYGSGAVAEFFTGELVAGYQNHLQKETHLALLDNRTELSIAEYEAMFAETLDTDIDQTLEDELKYSISAINNTVRSYRNKGHHHHHH
modifications: selenomethionine (MSE) in place of methionine, 100% incorporation by mass spectrometry
notes: Crystallised as a complex with the small molecule HMG-CoA; There are two MvaS molecules in the asymmetric unit, described as a dimer; Coordinates lack residues 1 and 384-391 (molecule A) and residues 1 and 388-391 (molecule B); also called MvaS Ef
On to B1, for which the binding result is recorded as “binds”.
